Results taken from paper PMC3093405, “A Motif Unique to the Human Dead-Box Protein DDX3 Is Important for Nucleic Acid Binding, ATP Hydrolysis, RNA/DNA Unwinding and HIV-1 Replication” (PLoS ONE, 2011).

B1: I-DDX3: double deletion DDX3 mutant (Δ1–159/Δ428–662), aa 160–427, helicase core of subdomain 1 (protein, UniProt O00571 160-427, looked up, fragment)
chain: FEKYDDIPVEATGNNCPPHIESFSDVEMGEIIMGNIELTRYTRPTPVQKHAIPIIKEKRDLMACAQTGSGKTAAFLLPILSQIYSDGPGEALRAMKENGRYGRRKQYPISLVLAPTRELAVQIYEEARKFSYRSRVRPCVVYGGADIGQQIRDLERGCHLLVATPGRLVDMMERGKIGLDFCKYLVLDEADRMLDMGFEPQIRRIVEQDTMPPKGVRHTMMFSATFPKEIQMLARDFLDEYIFLAVGRVGSTSENITQKVVWVEESDK
B2: N-DDX3: DDX3 mutant lacking the C-terminus (Δ428–662), aa 1–427, entire subdomain 1 plus linker (protein, UniProt O00571 1-427, looked up, fragment)
chain: MSHVAVENALGLDQQFAGLDLNSSDNQSGGSTASKGRYIPPHLRNREATKGFYDKDSSGWSSSKDKDAYSSFGSRSDSRGKSSFFSDRGSGSRGRFDDRGRSDYDGIGSRGDRSGFGKFERGGNSRWCDKSDEDDWSKPLPPSERLEQELFSGGNTGINFEKYDDIPVEATGNNCPPHIESFSDVEMGEIIMGNIELTRYTRPTPVQKHAIPIIKEKRDLMACAQTGSGKTAAFLLPILSQIYSDGPGEALRAMKENGRYGRRKQYPISLVLAPTRELAVQIYEEARKFSYRSRVRPCVVYGGADIGQQIRDLERGCHLLVATPGRLVDMMERGKIGLDFCKYLVLDEADRMLDMGFEPQIRRIVEQDTMPPKGVRHTMMFSATFPKEIQMLARDFLDEYIFLAVGRVGSTSENITQKVVWVEESDK
B3: DDX1: full length human DEAD-box protein DDX1, recombinant, largest known insertion between motifs I and Ia (protein, UniProt Q92499 1-740, looked up)
chain: MAAFSEMGVMPEIAQAVEEMDWLLPTDIQAESIPLILGGGDVLMAAETGSGKTGAFSIPVIQIVYETLKDQQEGKKGKTTIKTGASVLNKWQMNPYDRGSAFAIGSDGLCCQSREVKEWHGCRATKGLMKGKHYYEVSCHDQGLCRVGWSTMQASLDLGTDKFGFGFGGTGKKSHNKQFDNYGEEFTMHDTIGCYLDIDKGHVKFSKNGKDLGLAFEIPPHMKNQALFPACVLKNAELKFNFGEEEFKFPPKDGFVALSKAPDGYIVKSQHSGNAQVTQTKFLPNAPKALIVEPSRELAEQTLNNIKQFKKYIDNPKLRELLIIGGVAARDQLSVLENGVDIVVGTPGRLDDLVSTGKLNLSQVRFLVLDEADGLLSQGYSDFINRMHNQIPQVTSDGKRLQVIVCSATLHSFDVKKLSEKIMHFPTWVDLKGEDSVPDTVHHVVVPVNPKTDRLWERLGKSHIRTDDVHAKDNTRPGANSPEMWSEAIKILKGEYAVRAIKEHKMDQAIIFCRTKIDCDNLEQYFIQQGGGPDKKGHQFSCVCLHGDRKPHERKQNLERFKKGDVRFLICTDVAARGIDIHGVPYVINVTLPDEKQNYVHRIGRVGRAERMGLAISLVATEKEKVWYHVCSSRGKGCYNTRLKEDGGCTIWYNEMQLLSEIEEHLNCTISQVEPDIKVPVDEFDGKVTYGQKRAAGGGSYKGHVDILAPTVQELAALEKEAQTSFLHLGYLPNQLFRTF
modifications: full-length
notes: full length human DEAD-box protein DDX1, recombinant, largest known insertion between motifs I and Ia

Key:
Type in all cases: biochemical
[1] = test system: partially dsDNA substrates (18/38-mer); experiment: DNA helicase assay; settings: for DNA helicase activity: data not shown
From the text: (§1) The helicase activity of DDX3wt and mutant forms was monitored by measuring the conversion of a double stranded (ds) DNA or RNA (labelled at the 5′-end of one strand with a 6-FAM fluorescent group) into single stranded (ss) nucleic acid. For the RNA helicase assay, a 18/36mer ds RNA oligonucleotide with both 3′ and 5′-protruding ss ends was used. For the DNA helicase assay, three different dsDNA substrates were used, all of them composed of the same 18mer oligonucleotide 5′-FAM labelled and three different 38 mer oligonucleotides with the sequence complementary to the 18 mer at different positions. Annealing of the 18 mer to each of the 38 mer generated the different DNA substrates shown in Fig. 5 A. A final concentration of 20 nM RNA or DNA substrate was used in the experiments, unless otherwise stated. The amounts of the different DDX3 proteins are indicated in the respective Figures.
Reactions were performed in 50 mM TrisHCl pH 7.5, 1 mM DTT, 0.2 mg/ml BSA, 5% glycerol and 1 mM ATP, 10 mM MgCl2 at 37°C degrees for 10′ and stopped by adding EDTA 50 mM pH 8. Products were separated on a native 7% PAGE […] at 5 W in TBE buffer with 0.1% SDS at 4°C for 2 hours for RNA substrates, 4 hours for DNA substrates. Substrates and products were quantified by laser scanning densitometry (Thyphoon-TRIO, GE Healthcare). For trap-assays, the enzyme and the RNA substrate were incubated on ice for 4 min, in the absence of ATP. Reactions were started by addition of ATP and a 50-fold molar excess (1 µM) of r(A)40 trap RNA oligonucleotide, followed by incubation at 37°C for the indicated times.

[2] = test system: 18/36mer ds RNA oligonucleotide; experiment: RNA helicase assay; settings: data not shown
From the text: as §1
Reactions were performed in 50 mM TrisHCl pH 7.5, 1 mM DTT, 0.2 mg/ml BSA, 5% glycerol and 1 mM ATP, 10 mM MgCl2 at 37°C degrees for 10′ and stopped by adding EDTA 50 mM pH 8. Products were separated on a native 7% PAGE […] at 5 W in TBE buffer with 0.1% SDS at 4°C for 2 hours for RNA substrates, 4 hours for DNA substrates. Substrates and products were quantified by laser scanning densitometry (Thyphoon-TRIO, GE Healthcare). […]

[3] = ATPase activity assay ([γ-32P]ATP hydrolysis, TLC), steady-state kinetics; settings: for Intrinsic ability to hydrolyze ATP: absence of nucleic acid; for Stimulation of ATPase activity by nucleic acids: presence of both NA (RNA, DNA)
Protocol: (§2) The ATPase activity was determined, as previously described, by directly monitoring [γ-^32P] ATP hydrolysis by thin-layer chromatography (TLC). ATP (3000 Ci/mmol) as tracer, plus 1 mM of cold ATP, unless otherwise stated, and nucleic acids as indicated. Samples were incubated for 5 minutes at 25°C and dotted onto TLC sheets of polyethylenimine cellulose. The products were separated by ascending chromatography with 0.5 M KH2PO4 (pH 3.4). The intensities of the radioactive bands corresponding to ATP and Pi were quantified by densitometric scanning with PhosphoImager. For the stimulation of the ATPase activity, the ssDNA oligonucleotide oligo(dT)20 or the ssRNA oligonucleotide oligo (rU)20 were used. Time-course experiments were performed under the conditions described above. Samples were taken at different time points and processed as described above.
ATPase reactions were performed as described, in the presence of increasing amounts of nucleic acids and variable ATP concentrations. […] The relative -fold increase in the ATPase velocities 1−(vDNA/v) as a function of the nucleic acid concentrations was fitted to the hyperbolic relationship: [drawing 2] (2) where vNA is the apparent velocity of the reaction in the presence of nucleic acid, v is the velocity in its absence, KD is the apparent affinity for the nucleic acid and [NA] is the concentration of the nucleic acid substrate. The symbol KD is used, instead of Km, solely to reflect the fact that the NA is not a reactant (i.e. it is not converted into products) but only a cofactor of the reaction, without implying any assumption on the nature of the microscopic rates contributing to the KD value itself.

[4] = ATPase time-course (burst kinetics)
Protocol: as §2
Variation of the ATPase reaction as a function of time was fitted to the mixed-exponential equation: [drawing 3] (3) where [P] is the concentration of products (pmols) at any given time point, t is time, Aburst is the burst amplitude, k burst is the rate of the exponential phase, k ss is the rate of the steady-state linear phase.

[5] = relative to absence of nucleic acid

| Molecule | DNA helicase activity [1] | RNA helicase activity [2] | k cat ([3]; +DNA, oligo(dT)20) | k cat ([3]; +RNA, oligo(rU)20) | Intrinsic ability to hydrolyze ATP [3] | k cat ([3]; absence of nucleic acids) | Stimulation of ATPase activity by nucleic acids [3] | Aburst ([4]; +DNA, oligo(dT)20) | k burst ([4]; +DNA, oligo(dT)20) | k ss ([4]; +DNA, oligo(dT)20) | Aburst ([4]; +RNA, oligo(rU)20) | k burst ([4]; +RNA, oligo(rU)20) | k ss ([4]; +RNA, oligo(rU)20) | Aburst ([4]; absence of nucleic acids) | k burst ([4]; absence of nucleic acids) | k ss ([4]; absence of nucleic acids) | DNA unwinding ([1]; DNA duplex with both 5′- and 3′-protruding ssDNA ends, 18/[5′-3′]-38 mer) | Increase of catalytic efficiency (kcat/Km) by DNA [3, 5] | Increase of catalytic efficiency (kcat/Km) by RNA [3, 5] |
| --- | --- | --- | --- | --- | --- | --- | --- | --- | --- | --- | --- | --- | --- | --- | --- | --- | --- | --- | --- |
| B1 | inactive | did not show helicase activity | 0.0233 ± 0.0067 s⁻¹ | 0.0267 ± 0.0083 s⁻¹ | low but detectable ATPase activity | 0.0183 ± 0.0033 s⁻¹ | no stimulation | 0.15 ± 0.02 µM | 0.4 ± 0.6 min⁻¹ | 0.3 ± 0.05 min⁻¹ | 0.11 ± 0.03 µM | 0.4 ± 0.5 min⁻¹ | 0.4 ± 0.04 min⁻¹ | 0.12 ± 0.02 µM | 0.3 ± 0.4 min⁻¹ | 0.3 ± 0.05 min⁻¹ | – | – | – |
| B2 | inactive | did not show helicase activity | 0.0183 ± 0.0083 s⁻¹ | 0.0163 ± 0.0005 s⁻¹ | low but detectable ATPase activity | 0.013 ± 0.005 s⁻¹ | no stimulation | 0.12 ± 0.01 µM | 0.5 ± 0.5 min⁻¹ | 0.33 ± 0.05 min⁻¹ | 0.13 ± 0.01 µM | 0.5 ± 0.5 min⁻¹ | 0.35 ± 0.06 min⁻¹ | 0.12 ± 0.02 µM | 1 ± 0.5 min⁻¹ | 0.4 ± 0.05 min⁻¹ | – | – | – |
| B3 | – | – | 0.035 ± 0.005 s⁻¹ | 0.0633 ± 0.0083 s⁻¹ | – | 0.0317 ± 0.005 s⁻¹ | – | – | – | – | – | – | – | – | – | – | did not display DNA unwinding capability | 1.3 fold | 2.6 fold |
